# Measurements reported in the supplement of paper PMC9112550, “Optimization of the antimicrobial peptide Bac7 by deep mutational scanning” (BMC Biology, 2022).
# System: Escherichia coli TOP10
# Test: shrunken log2 fold change of peptide-encoding DNA abundance (4.5 h post-induction vs induction); higher = less antimicrobial activity (less host growth inhibition)
# Conditions: time post-induction: 4.5 h; library: site-saturation at positions 5, 18, 19, 20
# 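Note: peptides expressed intracellularly from a pBAD plasmid library in pooled LB shake-flask culture, induced with 0.3% L-arabinose, DNA abundance read by NGS, three biological replicates, DESeq2 with apeglm shrinkage.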
row,Sequence,shrunken log2 fold change
1,RRIRPRPPRLPRPRPRPTHWPRP,0.484
2,RRIRMRPPRLPRPRPRPCNEPRP,-0.249
3,RRIRTRPPRLPRPRPRPNAKPRP,-0.0531
4,RRIRKRPPRLPRPRPRPFTDPRP,-0.091
5,RRIRTRPPRLPRPRPRPVVFPRP,-0.184
6,RRIRQRPPRLPRPRPRPATWPRP,0.343
7,RRIRSRPPRLPRPRPRPKCFPRP,0.318
8,RRIRKRPPRLPRPRPRPKSLPRP,0.107
9,RRIRMRPPRLPRPRPRPPEAPRP,0.779
10,RRIRDRPPRLPRPRPRPHCKPRP,0.0223
11,RRIRKRPPRLPRPRPRPLYCPRP,-0.237
12,RRIRQRPPRLPRPRPRPQDTPRP,-0.555
13,RRIRQRPPRLPRPRPRPRHQPRP,-0.00749
14,RRIRQRPPRLPRPRPRPFKDPRP,-0.126
15,RRIRRRPPRLPRPRPRPGLCPRP,0.457
16,RRIRSRPPRLPRPRPRPLTEPRP,0.21
17,RRIRIRPPRLPRPRPRPKRTPRP,-0.198
18,RRIRRRPPRLPRPRPRPPCHPRP,0.761
19,RRIRHRPPRLPRPRPRPEDRPRP,-0.0767
20,RRIRSRPPRLPRPRPRPFYEPRP,-0.165

row,Sequence,shrunken log2 fold change
1,RRIRSRPPRLPRPRPRPWFFPRP,-0.197
2,RRIRGRPPRLPRPRPRPNFWPRP,0.544
3,RRIRDRPPRLPRPRPRPYLAPRP,-0.0552
4,RRIRTRPPRLPRPRPRPMPGPRP,0.106
5,RRIRLRPPRLPRPRPRPNWLPRP,0.0723
6,RRIRCRPPRLPRPRPRPCGDPRP,0.0996
7,RRIRNRPPRLPRPRPRPGLTPRP,-0.0698
8,RRIRNRPPRLPRPRPRPCWSPRP,0.0596
9,RRIRVRPPRLPRPRPRPICEPRP,0.058
10,RRIRTRPPRLPRPRPRPHKTPRP,-0.035
11,RRIRDRPPRLPRPRPRPWMNPRP,-0.15
12,RRIRPRPPRLPRPRPRPMSPPRP,-0.194
13,RRIRTRPPRLPRPRPRPFKCPRP,-0.18
14,RRIRYRPPRLPRPRPRPKMMPRP,-1.3
15,RRIRKRPPRLPRPRPRPCTAPRP,0.383
16,RRIRVRPPRLPRPRPRPDNVPRP,0.171
17,RRIRIRPPRLPRPRPRPRMTPRP,0.043
18,RRIRIRPPRLPRPRPRPSGPPRP,-0.21
19,RRIRKRPPRLPRPRPRPALIPRP,0.2
20,RRIRIRPPRLPRPRPRPDSLPRP,-0.163

row,Sequence,shrunken log2 fold change
1,RRIRRRPPRLPRPRPRPVPTPRP,0.472
2,RRIRKRPPRLPRPRPRPCPIPRP,-0.212
3,RRIRIRPPRLPRPRPRPSCPPRP,-0.776
4,RRIRDRPPRLPRPRPRPMPAPRP,0.354
5,RRIRKRPPRLPRPRPRPHDDPRP,0.171
6,RRIRYRPPRLPRPRPRPYTYPRP,-0.438
7,RRIRVRPPRLPRPRPRPEGVPRP,0.907
8,RRIRVRPPRLPRPRPRPWIMPRP,-0.0202
9,RRIRYRPPRLPRPRPRPLPSPRP,-0.14
10,RRIRQRPPRLPRPRPRPSVRPRP,-0.309
11,RRIRWRPPRLPRPRPRPNEMPRP,-0.078
12,RRIRTRPPRLPRPRPRPPHGPRP,-0.228
13,RRIRLRPPRLPRPRPRPVIHPRP,-1.64
14,RRIRKRPPRLPRPRPRPCHTPRP,0.0319
15,RRIRHRPPRLPRPRPRPFYDPRP,-0.837
16,RRIRFRPPRLPRPRPRPYCKPRP,-0.243
17,RRIRWRPPRLPRPRPRPMGGPRP,0.116
18,RRIRSRPPRLPRPRPRPKIYPRP,-0.265
19,RRIRVRPPRLPRPRPRPYCIPRP,-0.27
20,RRIRIRPPRLPRPRPRPGFTPRP,-0.329
